Test [1] has as its target T1, N-terminally biotinylated hNinj1 (2-56) peptide (human, UniProt Q92982 2-56, N-terminal biotin).
T1 construct: range 2-56; also called hNinj1 펩타이드
T1 sequence (peptide, looked up): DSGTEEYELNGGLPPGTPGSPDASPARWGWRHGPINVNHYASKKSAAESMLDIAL
Description: scFv clone ELISA screen. (In general: ELISA stands for enzyme-linked immunosorbent assay.)

Test [2] deals with T2, hNinj1 extracellular domain peptide with added C-terminal lysine, biotinylated (human).
T2 sequence (peptide, biotin on the added C-terminal lysine (K57)): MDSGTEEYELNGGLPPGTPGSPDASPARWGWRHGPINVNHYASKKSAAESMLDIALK
Description: clone ELISA screen.

Test [3] addresses T3, NINJ1 peptide (analyte of the sandwich ELISA) (UniProt Q92982 1-56, limits assumed).
T3 construct: also called Ninj1 펩타이드; NINJ1 펩타이드
T3 sequence (peptide, looked up): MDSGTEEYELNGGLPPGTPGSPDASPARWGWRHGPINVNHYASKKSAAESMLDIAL
Description: sandwich ELISA, NINJ1 titrated.

This note sets out measurements from patent KR20230117039A (dated 2023).

B1: B3, scFv clone of the VH3VL1 synthetic human antibody library (scFv)
chain: EVQLLESGGGLVQPGGSLRLSCAASGFTFSDYDMSWVRQAPGKGLEWVSGISSDNGSTYYADSVKGRFTISRDNSKNTLYLQMNSLRAEDTAVYYCARAAITCNNEWCYYYDAMDVWGQGTLVTVSSGGGGSGGGGSGGGGSQSVLTQPPSASGTPGQRVTISCTGPSSNIGNNDVSWYQQLPGTAPKLLIYANSNRPSGVSDRFSGSKSGTSASLAISGLRSEDEADYYCGAWDDSLNGYVFGGGTKLTVLGQAGQHHHHHHGAYPYDVPDYAS
Regarding B1, the “ELISA ratio hNinj1/control” value in test [1] is 5.12.

B2: C12, Fab clone of the rabbit immune library (Fab, V domains shown)
VH: QEQLKETGGGLVQPGGSLKLSCKASGIDFNTYTVSWVRQAPGKGLELIGYVDPVFDDTYYATWVNGRFTISSHNAQNTVYLQLNSLTAADTATYFCARLGAYDSSSGYPNFSLWGPGTLVTISS
VL: ELTQPPSLSASLDTTARLTCTLSTDYSVGEYPLVWLQQVPGRPPRYLLGYHTDDIKHQGPGVPSRFSGSKDHSTNTGVLTISGLQPEDEADYYCAVGVVFGGGTQLTVTG
For B2, in test [2], the ELISA ratio hNinj1/control was found to be 5.09.

B3: G2, Fab clone of the rabbit immune library (Example 1.3.3) (Fab, V domains shown)
VH: B2 VH
VL: B2 VL
In the case of B3, the ELISA ratio hNinj1/control in test [2] is 10.6.

B4: C12 anti-Ninj1 IgG antibody (antibody, V domains shown)
VH: B2 VH
VL: B2 VL
notes: Tested as IgG made in ExpiCHO; also called C12 IgG; 항 C12 Ninj1 항체
For B4, the EC50 (commonly the concentration at which the effect is half-maximal) in test [3] was around 0.03 µg/mL.

B5: E6, scFv clone of the VH3VL1 synthetic human antibody library (scFv)
chain: EVQLLESGGGLVQPGGSLRLSCAASGFTFSSYAIHWVRQAPGKGLEWVSAISGSGGSTYYADSVKGRFTISRNNSKNTLYLQVNSLRAEDTAVYYCARNPTYGGFDIWGQGTLVTVSSGGGGSGGGGSGGGGSQSVLTQPPSASGTPGQRVTISCSGSSSNIGSNYVYWYQQLPGTAPKLLIYRNNQRPSGVPDRFSGSKSGTSASLAISGLRSEDEADYYCGAWDDSLSSPVFGGGTKLTVLGQAGQHHHHHHGAYPYDVPDYAS
Consider B5, for which the “ELISA ratio hNinj1/control” value in test [1] was 5.62.

B6: C11, scFv clone of the VH3VL1 synthetic human antibody library (scFv)
chain: EVQLLESGGGLVQPGGSLRLSCAASGFTFSSYGISWVRQAPGKGLEWVSAISGSGGSTYYADSVKGRFTISRDNSKNTLYLQMNSLRAEDTAVYYCARTPIDADAFDYWGQGTLVTVSSGGGGSGGGGSGGGGSQSVLTQPPSASGTPGQRVTISCTGNIGNIASNYVQWYQQLPGTAPKLLIYDTYNKHRGVPDRFSGSKSGTSASLAISGLRSEDEADYYCGAWDDSLSGPVFGGGTKLTVLGQAGQHHHHHHGAYPYDVPDYAS
Take B6: the “ELISA ratio hNinj1/control” value in test [1] was 6.18.
